The substances below were run against HLA-A*02:01 (Homo sapiens, UniProt P04439, D140Y/D185E/D98H/E176V/E277Q/G131W/G231S/I119V/I121R/I166T/I218V/L300P/L318F/N151K/N90K/P208A/P217A/Q86G/Q94H/R138H/R169H/T345S) (assay: MHC binding assay (UV-ligand exchange, anti-β2m ELISA)). Details: peptide exchange yield, binding to HLA-A*02:01.
From the text: Candidate peptides for T cell based therapies according to the present invention were further tested for their MHC binding capacity (affinity). The individual peptide-MHC complexes were produced by UV-ligand exchange, where a UV-sensitive peptide is cleaved upon UV-irradiation and exchanged with the peptide of interest as analyzed. Only peptide candidates that can effectively bind and stabilize the peptide-receptive MHC molecules prevent dissociation of the MHC complexes. To determine the yield of the exchange reaction, an ELISA was performed based on the detection of the light chain (β2m) of stabilized MHC complexes. The assay was performed as generally described in Rodenko et al. (Rodenko et al., 2006).
96 well MAXISorp plates (NUNC) were coated over night with 2 μg/ml streptavidin in PBS at room temperature, washed 4× and blocked for 1 h at 37° C. in 2% BSA containing blocking buffer. Refolded HLA-A*02:01/MLA-001 monomers served as standards, covering the range of 15-500 ng/ml. Peptide-MHC monomers of the UV-exchange reaction were diluted 100-fold in blocking buffer. Samples were incubated for 1 h at 37° C., washed four times, incubated with 2 μg/ml HRP conjugated anti-β2m for 1 h at 37° C., washed again and detected with TMB solution that is stopped with […]. Absorption was measured at 450 nm. Candidate peptides that show a high exchange yield (preferably higher than 50%, most preferred higher than 75%) are generally preferred for a generation and production of antibodies or fragments thereof, and/or T cell receptors or fragments thereof, as they show sufficient avidity to the MHC molecules and prevent dissociation of the MHC complexes.

| Substance | Peptide exchange |
| --- | --- |
| 1 (ILDSTTIEI; peptide displayed by HLA-A*02) [compound 1] | ++++ (≥75% = ++++) |
| 2 (RLLEGDFSL; peptide displayed by HLA-A*02) [compound 2] | ++++ (≥75% = ++++) |
| 4 (YVWDRTELL; peptide displayed by HLA-A*02) [compound 4] | ++++ (≥75% = ++++) |
| 5 (ALPQFFNDV; peptide displayed by HLA-A*02) [compound 5] | ++++ (≥75% = ++++) |
| 9 (SLDDSLNEL; peptide displayed by HLA-A*02) [compound 9] | +++ (≥50% = +++) |
| 10 (FLGEDISNFL; peptide displayed by HLA-A*02) [compound 10] | ++++ (≥75% = ++++) |
| 11 (GLVDGSSVTV; peptide displayed by HLA-A*02) [compound 11] | ++++ (≥75% = ++++) |
| 12 (FVDEHTIDI; peptide displayed by HLA-A*02) [compound 12] | +++ (≥50% = +++) |
| 13 (VLMDGTLKQV; peptide displayed by HLA-A*02) [compound 13] | ++++ (≥75% = ++++) |
| 14 (YIYDGKDMSSL; peptide displayed by HLA-A*02) [compound 14] | +++ (≥50% = +++) |
| 15 (VLDDTLVIF; peptide displayed by HLA-A*02) [compound 15] | +++ (≥50% = +++) |
| 16 (KLISDMGKDVSA; peptide displayed by HLA-A*02) [compound 16] | +++ (≥50% = +++) |
| 17 (NVDSTILNL; peptide displayed by HLA-A*02) [compound 17] | ++++ (≥75% = ++++) |
| 18 (ILDEAKDISF; peptide displayed by HLA-A*02) [compound 18] | +++ (≥50% = +++) |
| 19 (RLLDTTDVYLL; peptide displayed by HLA-A*02) [compound 19] | ++++ (≥75% = ++++) |
| 20 (SLFAYPLPDV; peptide displayed by HLA-A*02) [compound 20] | ++++ (≥75% = ++++) |
| 21 (FLNLFDHTL; peptide displayed by HLA-A*02) [compound 21] | ++++ (≥75% = ++++) |
| 22 (HMIDLTIHL; peptide displayed by HLA-A*02) [compound 22] | +++ (≥50% = +++) |
| 23 (FLGPIVDL; peptide displayed by HLA-A*02) [compound 23] | ++++ (≥75% = ++++) |
| 24 (QLLGRDISL; peptide displayed by HLA-A*02) [compound 24] | ++++ (≥75% = ++++) |
| 25 (FMNDRSFIL; peptide displayed by HLA-A*02) [compound 25] | ++++ (≥75% = ++++) |
| 26 (ILYDGSNIQL; peptide displayed by HLA-A*02) [compound 26] | ++++ (≥75% = ++++) |
| 27 (YLFEDISQL; peptide displayed by HLA-A*02) [compound 27] | ++++ (≥75% = ++++) |

| Substance | Peptide exchange |
| --- | --- |
| 28 (FLLDGTDMFHM; peptide displayed by HLA-A*02) [compound 28] | +++ (≥50% = +++) |
| 29 (KLLDLTVRI; peptide displayed by HLA-A*02) [compound 29] | ++++ (≥75% = ++++) |
| 30 (QLMEKVQDV; peptide displayed by HLA-A*02) [compound 30] | +++ (≥50% = +++) |
| 31 (TLIDATWLV; peptide displayed by HLA-A*02) [compound 31] | ++++ (≥75% = ++++) |
| 32 (ALADLTGTVVNL; peptide displayed by HLA-A*02) [compound 32] | ++++ (≥75% = ++++) |
| 33 (ILFDLTHRV; peptide displayed by HLA-A*02) [compound 33] | ++++ (≥75% = ++++) |
| 34 (SLLDGSESAKL; peptide displayed by HLA-A*02) [compound 34] | ++++ (≥75% = ++++) |
| 35 (SLRDGTEVV; peptide displayed by HLA-A*02) [compound 35] | +++ (≥50% = +++) |
| 36 (SLYDFTGEQMAA; peptide displayed by HLA-A*02) [compound 36] | +++ (≥50% = +++) |
| 37 (AIDDTAARL; peptide displayed by HLA-A*02) [compound 37] | +++ (≥50% = +++) |
| 38 (AVDGTDARL; peptide displayed by HLA-A*02) [compound 38] | +++ (≥50% = +++) |
| 39 (AVFDQTVTVI; peptide displayed by HLA-A*02) [compound 39] | +++ (≥50% = +++) |
| 40 (FLDQTDETL; peptide displayed by HLA-A*02) [compound 40] | +++ (≥50% = +++) |
| 41 (FLDTSTADV; peptide displayed by HLA-A*02) [compound 41] | ++++ (≥75% = ++++) |
| 42 (IQDTSHLAV; peptide displayed by HLA-A*02) [compound 42] | +++ (≥50% = +++) |
| 43 (KLLNDLTSI; peptide displayed by HLA-A*02) [compound 43] | ++++ (≥75% = ++++) |
| 44 (LLDATHQI; peptide displayed by HLA-A*02) [compound 44] | ++++ (≥75% = ++++) |
| 45 (SLFDDSFSL; peptide displayed by HLA-A*02) [compound 45] | ++++ (≥75% = ++++) |
| 46 (SLSDVSQAV; peptide displayed by HLA-A*02) [compound 46] | +++ (≥50% = +++) |
| 48 (AIYHDITGISV; peptide displayed by HLA-A*02) [compound 48] | +++ (≥50% = +++) |
| 49 (ALDDYTITF; peptide displayed by HLA-A*02) [compound 49] | ++++ (≥75% = ++++) |
| 50 (ALYDSTRELL; peptide displayed by HLA-A*02) [compound 50] | ++++ (≥75% = ++++) |
| 51 (HLCNHDVSL; peptide displayed by HLA-A*02) [compound 51] | ++++ (≥75% = ++++) |

| Substance | Peptide exchange |
| --- | --- |
| 52 (ILFDDSVFTL; peptide displayed by HLA-A*02) [compound 52] | ++++ (≥75% = ++++) |
| 53 (ILTDITGHDV; peptide displayed by HLA-A*02) [compound 53] | +++ (≥50% = +++) |
| 54 (KLEERVYDV; peptide displayed by HLA-A*02) [compound 54] | ++++ (≥75% = ++++) |
| 55 (KTWDQSIAL; peptide displayed by HLA-A*02) [compound 55] | ++++ (≥75% = ++++) |
| 56 (LLDSTAHLL; peptide displayed by HLA-A*02) [compound 56] | ++++ (≥75% = ++++) |
| 57 (SLDISLPNL; peptide displayed by HLA-A*02) [compound 57] | ++++ (≥75% = ++++) |
| 58 (SQDASLLKV; peptide displayed by HLA-A*02) [compound 58] | +++ (≥50% = +++) |
| 59 (SQTDLSPAL; peptide displayed by HLA-A*02) [compound 59] | ++++ (≥75% = ++++) |
| 60 (TLDITIVNL; peptide displayed by HLA-A*02) [compound 60] | ++++ (≥75% = ++++) |
| 61 (FISDFTMTI; peptide displayed by HLA-A*02) [compound 61] | ++++ (≥75% = ++++) |
| 62 (FLKDVTAQI; peptide displayed by HLA-A*02) [compound 62] | ++++ (≥75% = ++++) |
| 63 (GLDRTQLVNV; peptide displayed by HLA-A*02) [compound 63] | ++++ (≥75% = ++++) |
| 64 (ILFDPDNSSAL; peptide displayed by HLA-A*02) [compound 64] | ++++ (≥75% = ++++) |
| 66 (LLDDQTVTF; peptide displayed by HLA-A*02) [compound 66] | +++ (≥50% = +++) |
| 67 (LLDTTDVYL; peptide displayed by HLA-A*02) [compound 67] | +++ (≥50% = +++) |
| 68 (RLQDTTIGL; peptide displayed by HLA-A*02) [compound 68] | ++++ (≥75% = ++++) |
| 69 (SLLDENDVSSYL; peptide displayed by HLA-A*02) [compound 69] | ++++ (≥75% = ++++) |
| 70 (SMASFLKDV; peptide displayed by HLA-A*02) [compound 70] | ++++ (≥75% = ++++) |
| 71 (YLGAVFDL; peptide displayed by HLA-A*02) [compound 71] | ++++ (≥75% = ++++) |
| 72 (ALDSTNSEL; peptide displayed by HLA-A*02) [compound 72] | ++++ (≥75% = ++++) |
| 73 (ALMDVSQNV; peptide displayed by HLA-A*02) [compound 73] | ++++ (≥75% = ++++) |

— patent publication US11969464B2, “Amidated peptides and their deamidated counterparts displayed by HLA-A*02 for use in immunotherapy against different types of cancers” (Immatics Biotechnologies GmbH, priority 2020, dated 2024)
